Here are results for 50 substances from the supplement of paper PMC7932537, “Quantitative profiling of protease specificity” (PLoS Computational Biology, 2021).

The target of one assay is MMP-2 catalytic domain (UniProt P08253). Description: kcat/KM (M-1 s-1); higher = more efficient cleavage by the protease. How it is done: (§1)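 Catalytic efficiency (kcat/KM) of synthetic peptides carrying hexamer sequences taken from MMP-2/9 substrate phage selections. Cleavage was measured with recombinant human MMP-2 or MMP-9 catalytic domains (expressed in HEK293, APMA-activated, active-site titrated with GM6001), in triplicate, as described in the authors' ref 27.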
Sequence of MMP-2 catalytic domain (P08253 whole entry, looked up, the tested form may be a part): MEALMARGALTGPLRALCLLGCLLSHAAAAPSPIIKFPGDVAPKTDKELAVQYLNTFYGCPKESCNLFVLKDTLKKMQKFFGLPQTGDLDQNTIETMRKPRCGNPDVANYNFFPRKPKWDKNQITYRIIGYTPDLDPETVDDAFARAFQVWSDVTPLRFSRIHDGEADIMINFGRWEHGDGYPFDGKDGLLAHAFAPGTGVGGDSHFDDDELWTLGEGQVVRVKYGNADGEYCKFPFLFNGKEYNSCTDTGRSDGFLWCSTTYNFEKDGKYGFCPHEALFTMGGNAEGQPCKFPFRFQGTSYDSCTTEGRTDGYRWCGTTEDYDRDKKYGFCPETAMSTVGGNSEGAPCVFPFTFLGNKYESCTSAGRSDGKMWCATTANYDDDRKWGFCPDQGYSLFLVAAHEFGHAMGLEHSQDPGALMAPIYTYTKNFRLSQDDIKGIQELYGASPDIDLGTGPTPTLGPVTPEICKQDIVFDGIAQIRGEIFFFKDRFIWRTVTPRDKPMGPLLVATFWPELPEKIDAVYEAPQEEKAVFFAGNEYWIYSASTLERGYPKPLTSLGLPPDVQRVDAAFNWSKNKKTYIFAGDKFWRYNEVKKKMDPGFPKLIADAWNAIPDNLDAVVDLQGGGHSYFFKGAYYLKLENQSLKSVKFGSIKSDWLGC

A further assay deals with MMP-9 catalytic domain (UniProt P14780). Described as above. The procedure:
as §1

± gives the uncertainty stated by the source.

Sequence of MMP-9 catalytic domain (P14780 whole entry, the tested form may be a part): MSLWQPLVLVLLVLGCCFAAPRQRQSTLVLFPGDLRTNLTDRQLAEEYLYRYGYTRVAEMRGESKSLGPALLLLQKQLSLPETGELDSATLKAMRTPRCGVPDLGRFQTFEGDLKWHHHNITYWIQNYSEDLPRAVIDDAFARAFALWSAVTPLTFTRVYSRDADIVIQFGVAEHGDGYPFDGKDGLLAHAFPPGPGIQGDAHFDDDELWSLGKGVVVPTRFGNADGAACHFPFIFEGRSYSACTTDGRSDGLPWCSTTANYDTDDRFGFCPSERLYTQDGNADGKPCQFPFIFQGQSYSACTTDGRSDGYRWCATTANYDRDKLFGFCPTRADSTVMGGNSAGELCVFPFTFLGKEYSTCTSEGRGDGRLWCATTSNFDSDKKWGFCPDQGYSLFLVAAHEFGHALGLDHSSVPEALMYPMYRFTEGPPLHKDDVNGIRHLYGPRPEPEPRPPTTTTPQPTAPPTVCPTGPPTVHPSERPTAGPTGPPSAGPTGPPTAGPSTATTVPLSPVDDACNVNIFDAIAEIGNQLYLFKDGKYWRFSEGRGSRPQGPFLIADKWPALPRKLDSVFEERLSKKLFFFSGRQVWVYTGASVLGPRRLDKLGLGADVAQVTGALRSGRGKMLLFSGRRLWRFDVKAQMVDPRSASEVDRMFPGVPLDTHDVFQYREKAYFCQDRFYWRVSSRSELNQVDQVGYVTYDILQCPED

As to RRPRPL, the kcat/KM with MMP-2 catalytic domain is 25000 ± 850; with MMP-9 catalytic domain, 38200 ± 2100.
The matching figures for TTPSPI: 115000 ± 20000 and 41000 ± 7100.
As to GEPRGQ, the kcat/KM in the assay with MMP-2 catalytic domain is 48000 ± 960; in the assay with MMP-9 catalytic domain, 52200 ± 3000.
For ETPRPW the same measures were 19700 ± 660 and 7950 ± 380.
Regarding APALWI, the kcat/KM was found to be 34400 ± 940 in the assay with MMP-2 catalytic domain and 33400 ± 740 with MMP-9 catalytic domain.
For DGPVSF the same measures were 22200 ± 940 and 9530 ± 160.
The matching figures for QSPINL: 31000 ± 750 and 61100 ± 2800.
For EVPQAL the same measures were 47700 ± 3300 and 43200 ± 580.
PRGFSH: the values for the kcat/KM in the assay with MMP-2 catalytic domain and with MMP-9 catalytic domain were 1390 ± 1400 and 896 ± 900, respectively.
For PGPIGI the same measures were 22800 ± 800 and 38500 ± 1900.
For LSPFGQ the same measures were 10000 ± 610 and 46100 ± 1800.
For PLRQIG the same measures were 12300 ± 2000 and 33200 ± 5000.
As for AHNLSS, the kcat/KM with MMP-2 catalytic domain is 16400 ± 620; with MMP-9 catalytic domain, 9130 ± 640.
The matching figures for RPEDLR: 21300 ± 500 and 16500 ± 1300.
For PKGYQG the same measures were 48000 ± 2700 and 85700 ± 1400.
With GPRYLM, the values for the kcat/KM with MMP-2 catalytic domain and in the assay with MMP-9 catalytic domain were 30900 ± 11000 and 37800 ± 1800, respectively.
In the case of PQPSEL, the values for the kcat/KM with MMP-2 catalytic domain and in the assay with MMP-9 catalytic domain were 51200 ± 2200 and 45500 ± 5000, respectively.
The matching figures for PVGMKG: 60400 ± 1200 and 64000 ± 7200.
The matching figures for PMALMD: 15300 ± 440 and 36900 ± 3300.
For PQPLDL the same measures were 32300 ± 2800 and 55200 ± 2700.
Turning to SPMAFS, the kcat/KM with MMP-2 catalytic domain was 18400 ± 250; in the assay with MMP-9 catalytic domain, 11400 ± 440.
The matching figures for TPAAMT: 107000 ± 13000 and 21100 ± 1300.
The matching figures for INPQGL: 114000 ± 14000 and 74100 ± 8200.
Turning to QPLEIR, the kcat/KM with MMP-2 catalytic domain was 28400 ± 1100; with MMP-9 catalytic domain it was 45100 ± 1200.
The matching figures for WPSPFR: 36800 ± 970 and 11600 ± 180.
The matching figures for PYGIKG: 54400 ± 2400 and 51400 ± 2200.
On to VSALSS, for which the kcat/KM was determined as 24900 ± 1200 in the assay with MMP-2 catalytic domain and 7040 ± 190 in the assay with MMP-9 catalytic domain.
For PMDIHA the same measures were 15300 ± 280 and 46000 ± 1400.
For QGPAAI, the values for the kcat/KM in the assay with MMP-2 catalytic domain and in the assay with MMP-9 catalytic domain were 92100 ± 1800 and 72300 ± 1400, respectively.
The matching figures for PHPRLL: 30700 ± 650 and 75300 ± 11000.
The matching figures for EGPAGL: 133000 ± 23000 and 55400 ± 2200.
The matching figures for PEPAAL: 104000 ± 6400 and 89400 ± 9500.
With EPKPLL, the figures for the kcat/KM with MMP-2 catalytic domain and with MMP-9 catalytic domain were 17700 ± 940 and 18900 ± 2200, respectively.
For EPVSLA the same measures were 7230 ± 110 and 2680 ± 64.
The matching figures for GPALSY: 12600 ± 210 and 17500 ± 760.
The matching figures for MRPVGH: 39300 ± 3400 and 31800 ± 2600.
As to HPVSMV, the kcat/KM with MMP-2 catalytic domain stood at 32100 ± 18000; with MMP-9 catalytic domain it was 8720 ± 330.
In the case of PQPEGL, the kcat/KM is 53800 ± 2400 with MMP-2 catalytic domain and 48400 ± 2200 in the assay with MMP-9 catalytic domain.
For PHGLAT the same measures were 16300 ± 2800 and 12500 ± 270.
Turning to VPQEWR, the figures for the kcat/KM in the assay with MMP-2 catalytic domain and with MMP-9 catalytic domain were 27700 ± 1800 and 16200 ± 1600, respectively.
For VHPSAV the same measures were 34300 ± 940 and 33900 ± 3000.
As to PGPAGQ, the kcat/KM was determined as 154000 ± 23000 in the assay with MMP-2 catalytic domain and 59800 ± 2100 with MMP-9 catalytic domain.
For PIQLQS the same measures were 10300 ± 350 and 11900 ± 320.
The matching figures for GEPFEL: 8910 ± 670 and 15500 ± 1100.
For IPLASL the same measures were 45700 ± 960 and 3730 ± 120.
With PGPIGW, the kcat/KM was 27000 ± 1000 with MMP-2 catalytic domain and 28700 ± 860 with MMP-9 catalytic domain.
For KSPQAM the same measures were 62600 ± 6300 and 109000 ± 7600.
On to GPAGIR, for which the kcat/KM is 181000 ± 96000 with MMP-2 catalytic domain and 49830 ± 250 in the assay with MMP-9 catalytic domain.
For ARHYKS the same measures were 15840 ± 130 and 25200 ± 1700.
For GPARPY the same measures were 39700 ± 1900 and 26200 ± 1600.
